In the supplement of paper PMC9732359:
± gives the uncertainty stated by the source.

Experiment: protein stability index of a GFP-peptide fusion (yeast GPS) (PSI 1-4); higher = more stable; sorted into four equal gates, so the index is relative within each strain
How it was run: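 The protein stability index combines read frequencies across sorting gates, each weighted by its gate number and then summed. To obtain those frequencies, a pooled yeast library of GFP fusions to tiled 17-residue yeast protein peptides, on a plasmid also expressing Cherry, was grown to mid-log phase in leucine-free medium. The cells were sorted into four equal gates by GFP/Cherry ratio before plasmid amplification by PCR and Illumina sequencing.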

| Sequence | protein stability index (doa10∆) | protein stability index (pdr5∆) | protein stability index (san1∆) | protein stability index (ubr1∆) |
| --- | --- | --- | --- | --- |
| SYQPMYQRPMQVQGQQQ [SSN3] | 1.46 ± 0.043 | 1.71 ± 0.06 | 1.92 ± 0.11 | 1.89 ± 0.054 |
| SYSPTSPSYSPTSPNYS [RPO21] | 2.88 ± 0.065 | 2.96 ± 0.056 | 2.84 ± 0.054 | 3.066 ± 0.028 |
| SYSPTSPSYSPTSPSYS [RPO21] | 2.53 ± 0.042 | 2.66 ± 0.041 | 2.78 ± 0.037 | 2.76 ± 0.034 |
| SYVNYRHMALLVDVMTT [RPO21] | 1.23 ± 0.049 | 1.25 ± 0.049 | 1.2 ± 0.062 | 1.18 ± 0.034 |
| TAEINCFMHLLVQLFLW [RPN3] | 1.77 ± 0.063 | 2.05 ± 0.051 | 1.68 ± 0.14 | 2.73 ± 0.072 |
| TALDAEGAARGTSVYLV [DIS3] | 2.24 ± 0.13 | 1.58 ± 0.082 | 2.47 ± 0.12 | 2.28 ± 0.096 |
| TAPANTTDANGSKENYQ [MED2] | 2.08 ± 0.066 | 2.06 ± 0.058 | 3.02 ± 0.047 | 2.86 ± 0.066 |
| TATAATNGNNAGGGSNK [MED6] | 3.23 ± 0.12 | 3.41 ± 0.085 | 3.27 ± 0.11 | 3.46 ± 0.1 |
| TATGIKVFSLDPQYLVD [ASC1] | 2.52 ± 0.049 | 2.67 ± 0.044 | 2.89 ± 0.039 | 2.58 ± 0.032 |
| TAVATLLKELSKNAQFI [SMC3] | 2.88 ± 0.071 | 2.66 ± 0.052 | 2.8 ± 0.049 | 2.66 ± 0.048 |
| TAVLSTTARAKARAKKT [RPN2] | 3.31 ± 0.11 | 3.17 ± 0.077 | 3.15 ± 0.075 | 3.19 ± 0.072 |
| TCVTCHWNLPGERIFNK [SIR2] | 2.87 ± 0.14 | 2.88 ± 0.11 | 2.82 ± 0.091 | 3.19 ± 0.083 |
| TDANGKTIVTGGNGPED [RPO26] | 3.62 ± 0.21 | 3.28 ± 0.099 | 3.48 ± 0.12 | 3.37 ± 0.057 |
| TDDSFEDKVFASKGRTK [BRN1] | – | 2.74 ± 0.099 | 2.93 ± 0.13 | 2.29 ± 0.18 |
| TDTSTTATAATNGNNAG [MED6] | 3.2 ± 0.29 | 3.06 ± 0.13 | 3.39 ± 0.091 | 3.29 ± 0.096 |
| TEDILKEISTRVFNAKD [YCS4] | 3.11 ± 0.13 | 3.17 ± 0.095 | 3.25 ± 0.095 | 3.29 ± 0.092 |
| TEDVRLAPELNQAIWKR [RPL31B] | 2.67 ± 0.069 | 2.99 ± 0.083 | 3.03 ± 0.062 | 3.08 ± 0.05 |
| TEELSITGEKLDTQLND [SMC1] | 1.86 ± 0.068 | 2.41 ± 0.083 | 2.29 ± 0.12 | 1.36 ± 0.034 |
| TEKEEDAELMADEEEEI [ISW2] | 3.5 ± 0.18 | 3.38 ± 0.13 | 3.41 ± 0.083 | 3.34 ± 0.17 |
| TELKKKLDDLENTKDNL [SMC1] | 3.01 ± 0.11 | 2.94 ± 0.12 | 3.09 ± 0.12 | 2.72 ± 0.14 |
| TELVDKANIFQVIKNEV [SSN2] | – | 2.54 ± 0.18 | 2.97 ± 0.2 | 3.16 ± 0.17 |
| TENATENDQQDNEEWMN [LIN1] | 3.23 ± 0.072 | 3.03 ± 0.067 | 3.06 ± 0.062 | 2.77 ± 0.05 |
| TENVAQARIILNHILEK [YGR119C/NUP57] | 2.58 ± 0.081 | 2.87 ± 0.08 | 3.14 ± 0.067 | 2.86 ± 0.061 |
| TEPDKPAFSFNSSVGNK [YJL041W/NSP1] | 3.14 ± 0.053 | 3.3 ± 0.04 | 3.09 ± 0.033 | 3.242 ± 0.029 |
| TEQQIEIPEGVTVSIKS [RPL9B] | 2.24 ± 0.062 | 2.73 ± 0.071 | 2.39 ± 0.067 | 2.47 ± 0.059 |
| TESITHDSSNGLFQVLH [NUT1] | 3.12 ± 0.073 | 3.22 ± 0.061 | 2.99 ± 0.058 | 3.17 ± 0.041 |
